Ends that are not written are not given here. * marks the point of attachment. FITC = O=C1OC2(c3ccc(O)cc3Oc3cc(O)ccc32)c2ccc(NC(=S)*)cc21

B1: FITC-PKI^NES peptide (FITC-SGNSNELALKLAGLDINKT) (peptide)
peptide: {FITC}-SGNSNELALKLAGLDINKT
notes: also called fluorescent-labeled PKI^NES peptide; source: synthetic peptide (GenScript)
B2: CPEB4^NES peptide used for crystallization (GGSY-379RTFDMHSLESSLIDI393) (peptide)
peptide: GGSYRTFDMHSLESSLIDI
notes: residues before the NES that are left after TEV cleavage; NES of CPEB4, residues 379-393; source: E. coli BL-21(DE3), MBP fusion purified (amylose, ion exchange), cleaved with TEV, peptide isolated by gel filtration; not shown: MBP, N-terminal, cleaved
B3: hRio2^NES peptide used for crystallization (GGSY-389RSFEMTEFNQALEEI403) (peptide)
peptide: GGSYRSFEMTEFNQALEEI
modifications: not fully specified (residue 9); printed as GGSY^389^RSFEMTEFNQALEEI^403^
notes: residues before the NES that are left after TEV cleavage; NES of human Rio2 (hRio2), residues 389-403; The text speaks of a native and of a selenomethionine peptide; Residues 391-403 modelled; also called Selenomethione-hRio2; source: E. coli BL-21(DE3), MBP fusion purified (amylose, ion exchange), cleaved with TEV, peptide isolated by gel filtration; not shown: MBP, N-terminal, cleaved
B4: PKI^NES-Flip3 peptide used for crystallization (peptide)
peptide: GGSYRSFDMNELALKLAGLD
notes: PKI NES helix with the ΦXΦ motif moved to the N-terminus and made larger (FDM), after GGSY left from TEV cleavage; also called PKI-Flip3; source: E. coli BL-21(DE3), MBP fusion purified (amylose, ion exchange), cleaved with TEV, peptide isolated by gel filtration; not shown: MBP, N-terminal, cleaved
B5: CPEB4^NES-R peptide used for crystallization (peptide)
peptide: GGSYRMIDILSSELSHMDFTR
notes: also called CPEB4-R; source: E. coli BL-21(DE3), MBP fusion purified (amylose, ion exchange), cleaved with TEV, peptide isolated by gel filtration; not shown: MBP, N-terminal, cleaved
B6: hRio2^NES-R peptide used for crystallization (peptide)
peptide: GGSYGKIEELAQNFETMEFSR
modifications: not fully specified (residue 17)
notes: also called Selenomethione-hRio2-R; source: E. coli BL-21(DE3), MBP fusion purified (amylose, ion exchange), cleaved with TEV, peptide isolated by gel filtration; not shown: MBP, N-terminal, cleaved

The target of the first test is Full-length human CRM1 (HsCRM1) (human, UniProt O14980 1-1071). Nature of the test: differential bleaching monitored with a microscale thermophoresis instrument (direct titration); HsCRM1 serially diluted from 40 μM to 1.2 nM, mixed 1:1 with 120 μM ScRan-GTP and 40 nM FITC-PKI^NES; TB buffer with 15% glycerol, 0.05% Tween-20; 1 hr, room temperature. The conditions noted are these: both partners purified. Background: Microscale thermophoresis detects binding through changes in fluorescence in a small temperature gradient.
Chain of Full-length human CRM1 (HsCRM1) (O14980 whole entry): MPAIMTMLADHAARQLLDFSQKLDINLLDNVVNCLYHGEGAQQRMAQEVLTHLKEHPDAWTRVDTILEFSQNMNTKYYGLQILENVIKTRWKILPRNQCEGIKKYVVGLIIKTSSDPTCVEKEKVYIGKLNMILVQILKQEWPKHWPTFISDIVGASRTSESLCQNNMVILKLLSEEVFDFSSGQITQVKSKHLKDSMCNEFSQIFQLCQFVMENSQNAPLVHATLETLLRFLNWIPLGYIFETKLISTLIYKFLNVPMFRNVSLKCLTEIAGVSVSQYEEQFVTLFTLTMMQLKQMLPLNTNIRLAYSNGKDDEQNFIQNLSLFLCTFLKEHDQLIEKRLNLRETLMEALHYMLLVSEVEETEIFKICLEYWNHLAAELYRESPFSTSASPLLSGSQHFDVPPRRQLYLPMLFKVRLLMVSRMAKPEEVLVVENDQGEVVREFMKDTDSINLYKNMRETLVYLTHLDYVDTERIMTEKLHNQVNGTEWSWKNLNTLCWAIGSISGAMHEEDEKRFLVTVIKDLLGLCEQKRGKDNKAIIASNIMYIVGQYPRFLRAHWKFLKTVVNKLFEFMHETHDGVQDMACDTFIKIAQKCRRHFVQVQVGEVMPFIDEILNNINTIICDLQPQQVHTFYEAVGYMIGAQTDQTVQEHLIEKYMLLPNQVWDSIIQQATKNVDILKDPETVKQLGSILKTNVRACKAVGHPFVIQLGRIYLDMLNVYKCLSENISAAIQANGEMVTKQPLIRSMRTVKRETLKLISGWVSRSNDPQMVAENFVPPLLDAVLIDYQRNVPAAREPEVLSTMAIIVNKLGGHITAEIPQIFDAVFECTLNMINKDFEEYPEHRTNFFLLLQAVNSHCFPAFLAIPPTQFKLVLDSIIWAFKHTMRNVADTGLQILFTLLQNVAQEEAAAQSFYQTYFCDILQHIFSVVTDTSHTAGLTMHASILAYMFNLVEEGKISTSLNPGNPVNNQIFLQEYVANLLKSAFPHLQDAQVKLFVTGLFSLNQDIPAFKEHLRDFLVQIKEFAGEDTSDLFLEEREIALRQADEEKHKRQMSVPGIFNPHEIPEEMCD
For the molecule B1, the binding result is given as “binds”.

The next test deals with CRM1* (ScCRM1 residues 1-1058, Δ377-413, V441D, 537DLTVK541 to GLCEQ) (Saccharomyces cerevisiae, UniProt P30822 1-1058, Δ377–413 | V441D | 537DLTVK541 to GLCEQ). Put plainly: crystal structure; quaternary CRM1*-RanGppNHp-RanBP1 (Yrb1p)-NES peptide complexes, assembled 1:3:10 and purified by gel filtration in GF buffer; crystals in 17% PEG3350, 100 mM Bis-Tris pH 6.4, 200 mM ammonium nitrate, 10 mM spermine HCl. The following applies: both partners purified. (Size exclusion chromatography separates by hydrodynamic size, large species first.)
On to B2, for which the binding result was “binds”.

Consider B3, for which the binding result is “binds”.

As for B4, the binding result was “binds”.

In the case of B5, the binding result is reported as “binds”.

In the case of B6, the binding result is recorded as “binds”.
